Source: patent US20090246142A1, “Triggered Self-Assembly of Nanoparticles In Vivo” (MASSACHUSETTS INSTITUTE OF TECHNOLOGY, priority 2006, published 2009)

Target: TAMRA-C(Ahx)QpYDHPNI-CONH2 (CRK SH2-binding phosphopeptide) on nanoparticles (pY-peptide TSACs)
Assay: DLS of nanoparticle assembly, 12 nM TSACs, both partners polyvalent on particles

- hydrodynamic radius increase: 10 fold
Substance: Crk SH2 domain with an N-terminal cysteine (cys-SH2), conjugated to iron oxide nanoparticles (SH2 TSACs) (from UniProt P46108 13-118)
